Assays:
human CD45RC [1] = molecular target: T1, human CD45RC (human, UniProt P08575 26-1306); assay: flow cytometry, EDTA whole blood, one of three healthy volunteers [1]
T1 construct: Native protein on human blood leukocytes / PBMC / T cells of healthy volunteers; also called hCD45RC
T1 sequence: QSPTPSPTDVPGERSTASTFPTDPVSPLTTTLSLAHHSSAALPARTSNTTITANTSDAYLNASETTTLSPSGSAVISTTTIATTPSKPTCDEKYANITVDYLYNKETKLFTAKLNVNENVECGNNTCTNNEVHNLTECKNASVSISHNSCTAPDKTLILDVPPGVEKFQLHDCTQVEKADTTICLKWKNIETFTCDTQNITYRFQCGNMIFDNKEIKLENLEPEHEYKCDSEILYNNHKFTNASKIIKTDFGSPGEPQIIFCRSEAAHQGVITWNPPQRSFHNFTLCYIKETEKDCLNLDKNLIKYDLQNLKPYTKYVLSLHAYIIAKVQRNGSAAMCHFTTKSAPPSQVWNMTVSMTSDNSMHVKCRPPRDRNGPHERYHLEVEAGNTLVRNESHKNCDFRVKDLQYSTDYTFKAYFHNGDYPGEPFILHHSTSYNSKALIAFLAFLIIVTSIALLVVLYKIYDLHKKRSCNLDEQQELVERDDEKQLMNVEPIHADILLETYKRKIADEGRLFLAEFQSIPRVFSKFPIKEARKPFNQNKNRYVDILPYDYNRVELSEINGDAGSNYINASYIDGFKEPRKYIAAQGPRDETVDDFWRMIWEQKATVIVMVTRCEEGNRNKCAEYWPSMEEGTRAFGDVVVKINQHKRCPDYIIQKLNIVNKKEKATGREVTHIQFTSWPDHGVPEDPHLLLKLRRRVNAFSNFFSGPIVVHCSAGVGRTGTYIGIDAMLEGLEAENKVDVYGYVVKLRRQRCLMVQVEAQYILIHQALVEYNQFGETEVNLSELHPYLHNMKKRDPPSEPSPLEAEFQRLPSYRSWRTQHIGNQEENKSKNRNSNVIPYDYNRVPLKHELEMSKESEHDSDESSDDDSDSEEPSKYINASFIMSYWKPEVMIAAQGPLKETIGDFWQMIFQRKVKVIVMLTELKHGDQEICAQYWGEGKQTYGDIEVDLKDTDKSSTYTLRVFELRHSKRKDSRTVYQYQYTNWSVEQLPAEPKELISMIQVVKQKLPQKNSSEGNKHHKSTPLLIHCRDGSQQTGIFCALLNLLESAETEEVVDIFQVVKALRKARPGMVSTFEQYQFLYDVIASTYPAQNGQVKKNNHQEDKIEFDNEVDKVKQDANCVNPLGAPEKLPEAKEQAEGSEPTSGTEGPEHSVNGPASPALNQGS

human CD45RC [2] = molecular target: T1, human CD45RC; assay: flow cytometry, EDTA whole blood, one of three healthy volunteers [2]
human CD45RC [3] = molecular target: T1, human CD45RC; assay: flow cytometry, EDTA whole blood, one of three healthy volunteers [3]
human CD45RC [4] = molecular target: T1, human CD45RC; assay: flow cytometry, EDTA whole blood, one of three healthy volunteers; very few events [2]

Substance: MT2 (murine anti-hCD45RC antibody, commercially available)
- % of B cells in the CD45RC high gate (top) (human CD45RC [1]): 79.9%
- % of B cells in the CD45RC intermediate/low gate (middle) (human CD45RC [1]): 20.1%
- % of B cells in the CD45RC negative gate (bottom) (human CD45RC [1]): 0%
- % of CD3+ TCRab cells in the CD45RC high gate (top) (human CD45RC [1]): 8.34%
- % of CD3+ TCRab cells in the CD45RC intermediate/low gate (middle) (human CD45RC [1]): 46.2%
- % of CD3+ TCRab cells in the CD45RC negative gate (bottom) (human CD45RC [1]): 45.5%
- % of CD3+ TCRgd cells in the CD45RC high gate (top) (human CD45RC [1]): 1.93%
- % of CD3+ TCRgd cells in the CD45RC intermediate/low gate (middle) (human CD45RC [1]): 90.6%
- % of CD3+ TCRgd cells in the CD45RC negative gate (bottom) (human CD45RC [1]): 7.46%
- % of CD4+ T cells in the CD45RC high gate (top) (human CD45RC [1]): 3.64%
- % of CD4+ T cells in the CD45RC intermediate/low gate (middle) (human CD45RC [1]): 47.2%
- % of CD4+ T cells in the CD45RC negative gate (bottom) (human CD45RC [1]): 49.2%
- % of CD4+ Treg (CD25+CD127-) in the CD45RC high gate (top) (human CD45RC [1]): 3.52%
- % of CD4+ Treg (CD25+CD127-) in the CD45RC intermediate/low gate (middle) (human CD45RC [1]): 19.8%
- % of CD4+ Treg (CD25+CD127-) in the CD45RC negative gate (bottom) (human CD45RC [1]): 76.7%
- % of CD8+ T cells in the CD45RC high gate (top) (human CD45RC [1]): 38.8%
- % of CD8+ T cells in the CD45RC intermediate/low gate (middle) (human CD45RC [1]): 39.7%
- % of CD8+ T cells in the CD45RC negative gate (bottom) (human CD45RC [1]): 21.5%
- % of NK cells in the CD45RC high gate (top) (human CD45RC [1]): 28.6%
- % of NK cells in the CD45RC intermediate/low gate (middle) (human CD45RC [1]): 70.4%
- % of NK cells in the CD45RC negative gate (bottom) (human CD45RC [1]): 1%
- % of T cells in the CD45RC high gate (top) (human CD45RC [1]): 7.43%
- % of T cells in the CD45RC intermediate/low gate (middle) (human CD45RC [1]): 49.7%
- % of T cells in the CD45RC negative gate (bottom) (human CD45RC [1]): 42.9%
- % of ILC1 in the CD45RC high gate (top) (human CD45RC [2]): 9.3%
- % of ILC1 in the CD45RC intermediate/low gate (middle) (human CD45RC [2]): 27.5%
- % of ILC1 in the CD45RC negative gate (bottom) (human CD45RC [2]): 63.2%
- % of ILC2 in the CD45RC high gate (top) (human CD45RC [2]): 45%
- % of ILC2 in the CD45RC intermediate/low gate (middle) (human CD45RC [2]): 49.5%
- % of ILC2 in the CD45RC negative gate (bottom) (human CD45RC [2]): 5.5%
- % of MAIT cells in the CD45RC high gate (top) (human CD45RC [2]): 5.89%
- % of MAIT cells in the CD45RC intermediate/low gate (middle) (human CD45RC [2]): 71%
- % of MAIT cells in the CD45RC negative gate (bottom) (human CD45RC [2]): 23.2%
- % of NKT cells in the CD45RC high gate (top) (human CD45RC [2]): 34.4%
- % of NKT cells in the CD45RC intermediate/low gate (middle) (human CD45RC [2]): 54.2%
- % of NKT cells in the CD45RC negative gate (bottom) (human CD45RC [2]): 11.4%
- % of iNKT cells in the CD45RC high gate (top) (human CD45RC [2]): 24.1%
- % of iNKT cells in the CD45RC intermediate/low gate (middle) (human CD45RC [2]): 61.6%
- % of iNKT cells in the CD45RC negative gate (bottom) (human CD45RC [2]): 14.3%
- % of monocytes CD14+ in the CD45RC high gate (top) (human CD45RC [2]): 0.43%
- % of monocytes CD14+ in the CD45RC intermediate/low gate (middle) (human CD45RC [2]): 43.9%
- % of monocytes CD14+ in the CD45RC negative gate (bottom) (human CD45RC [2]): 55.6%
- % of monocytes CD14highCD16- in the CD45RC high gate (top) (human CD45RC [2]): 0.091%
- % of monocytes CD14highCD16- in the CD45RC intermediate/low gate (middle) (human CD45RC [2]): 38.3%
- % of monocytes CD14highCD16- in the CD45RC negative gate (bottom) (human CD45RC [2]): 61.6%
- % of basophils in the CD45RC high gate (top) (human CD45RC [3]): 0%
- % of basophils in the CD45RC intermediate/low gate (middle) (human CD45RC [3]): 7.3%
- % of basophils in the CD45RC negative gate (bottom) (human CD45RC [3]): 92.7%
- % of eosinophils in the CD45RC high gate (top) (human CD45RC [3]): 0.47%
- % of eosinophils in the CD45RC intermediate/low gate (middle) (human CD45RC [3]): 90.5%
- % of eosinophils in the CD45RC negative gate (bottom) (human CD45RC [3]): 9.08%
- % of mDC in the CD45RC high gate (top) (human CD45RC [3]): 0%
- % of mDC in the CD45RC intermediate/low gate (middle) (human CD45RC [3]): 14.3%
- % of mDC in the CD45RC negative gate (bottom) (human CD45RC [3]): 85.7%
- % of monocytes CD14intCD16+ in the CD45RC high gate (top) (human CD45RC [3]): 6.45%
- % of monocytes CD14intCD16+ in the CD45RC intermediate/low gate (middle) (human CD45RC [3]): 87.7%
- % of monocytes CD14intCD16+ in the CD45RC negative gate (bottom) (human CD45RC [3]): 5.87%
- % of neutrophils in the CD45RC high gate (top) (human CD45RC [3]): 0.014%
- % of neutrophils in the CD45RC intermediate/low gate (middle) (human CD45RC [3]): 19.3%
- % of neutrophils in the CD45RC negative gate (bottom) (human CD45RC [3]): 80.7%
- % of pDC in the CD45RC high gate (top) (human CD45RC [3]): 1.84%
- % of pDC in the CD45RC intermediate/low gate (middle) (human CD45RC [3]): 97.9%
- % of pDC in the CD45RC negative gate (bottom) (human CD45RC [3]): 0.23%
- % of ILC3 in the CD45RC high gate (top) (human CD45RC [4]): 50%
- % of ILC3 in the CD45RC intermediate/low gate (middle) (human CD45RC [4]): 50%
- % of ILC3 in the CD45RC negative gate (bottom) (human CD45RC [4]): 0%
